Measurements from PMC12062965, “Transposable Elements Drive Regulatory and Functional Innovation of F-box Genes”.

Legend:
GST-FBXA-215 FL = target: T1, GST-FBXA-215 FL (Caenorhabditis elegans, UniProt A0A8S4Q9N7 1-401); assay: EMSA; 50 mM Tris-HCl pH 7.5, 150 mM NaCl, 1 mM DTT, protease inhibitors, 2.5% glycerol, 77.3 nM DNA, 25 C 15 min; native 1.5% agarose gel in TBE at 4 C, SYBR Gold stain; details: protein: recombinant; tags: N-terminal GST; blunt
T1 sequence: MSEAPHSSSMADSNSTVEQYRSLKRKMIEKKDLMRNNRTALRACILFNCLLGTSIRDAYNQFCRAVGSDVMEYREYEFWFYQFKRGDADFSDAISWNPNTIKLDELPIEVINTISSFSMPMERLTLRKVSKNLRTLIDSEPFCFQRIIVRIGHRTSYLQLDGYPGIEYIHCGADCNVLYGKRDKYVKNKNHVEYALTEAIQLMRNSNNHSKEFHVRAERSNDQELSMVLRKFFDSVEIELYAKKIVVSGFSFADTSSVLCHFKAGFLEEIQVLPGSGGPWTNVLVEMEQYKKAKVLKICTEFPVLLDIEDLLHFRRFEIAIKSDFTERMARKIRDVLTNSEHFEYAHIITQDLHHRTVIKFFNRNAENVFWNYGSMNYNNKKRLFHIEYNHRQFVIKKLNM

GST-FBXA-192 FL = target: T2, GST-FBXA-192 FL (Caenorhabditis elegans, UniProt Q9XUX2 1-401); assay: as above; details: protein: recombinant; tags: N-terminal GST; blunt
T2 sequence: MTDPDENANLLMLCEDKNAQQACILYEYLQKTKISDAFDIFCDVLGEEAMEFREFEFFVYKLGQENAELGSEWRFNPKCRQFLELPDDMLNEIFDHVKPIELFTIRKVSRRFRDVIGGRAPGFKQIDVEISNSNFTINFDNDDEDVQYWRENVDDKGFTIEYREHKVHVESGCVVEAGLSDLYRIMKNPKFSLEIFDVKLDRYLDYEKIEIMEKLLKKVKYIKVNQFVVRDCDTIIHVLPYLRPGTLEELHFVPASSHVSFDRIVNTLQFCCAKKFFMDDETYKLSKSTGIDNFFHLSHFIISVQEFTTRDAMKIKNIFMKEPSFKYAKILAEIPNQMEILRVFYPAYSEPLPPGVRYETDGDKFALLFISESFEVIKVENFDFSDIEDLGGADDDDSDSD

B1: Mos1 right TIR (IRR100) (dsDNA)
DNA 1: TTTCTTTTTCCACAAAATTTAACGTGTTTTTTGATTTAAAAAAAACGACATTTCATACTTGTACACCTGA
DNA 2: TCAGGTGTACAAGTATGAAATGTCGTTTTTTTTAAATCAAAAAACACGTTAAATTTTGTGGAAAAAGAAA
- binding result (GST-FBXA-215 FL): no binding
- binding result (GST-FBXA-192 FL): no binding
